Where two headings read alike, the source gives them in different places.
Columns and labels:
[1] = test system: renalase-1 and renalase-2; assay: Renalase isoform specificity of anti-renalase antibodies; format: binding, human; settings: renalase-1 vs renalase-2
Description: Peptides were used as immunogens. The peptides generated ranged from 9 to 21 amino acids and corresponded to regions of the renalase-1 and renalase-2 proteins. […] Each peptide was conjugated to the adjuvant KLH via the cysteine and used to immunize 6 rabbits. Antiserum collected from each animal was screened for anti-renalase antibody titer by ELISA assay using both the relevant peptide (BSA-conjugate) or full length renalase-1 or 2. The antisera were also tested for their ability to detect endogenous renalase in tissue lysates by western blot. Using these screening criteria the animals producing antibodies with the preferred characteristics were selected. In some examples and for some peptides, several animals produced antibodies with the required specificity. […] Polyclonal antibodies raised against all of the peptides were generated by purification of total IgG from terminal bleeds by protein G chromatography followed by further purification on peptide affinity chromatography. Further and using standard procedures, lymphocytes from the spleens of selected animals were fused to myeloma cells for hybridoma generation. The hybridoma supernatants were screened for binding to both the peptides against which they were raised and secondarily screened against whole renalase protein. Selected hybridomas were sub-cloned and expanded for antibody purification. The monoclonal antibodies were purified from conditioned hybridoma culture supernatant by protein A affinity chromatography.

[2] = test system: PDACC; assay: PDACC growth with anti-RNLS antibodies, WST-1; format: cell-based, human; settings: 72 hrs
Description: FIG. 25A through FIG. 25E are a series of charts and images showing that inhibition of RNLS signaling is cytotoxic to cancer cells in vitro and in vivo. FIG. 25A is a chart showing relative cell viability following transient transfection of Panc1 cells using a RNLS-specific siRNA, or a non-specific control siRNA, and cell viability assayed 96 h later using the WST-1 reagent; n=6, ** indicates p<0.001. FIG. 25B is a chart showing relative cell viability when cells were treated with indicated antibodies for 72 hrs and cell viability determined using WST-1; m28-RNLS and m37-RNLS: monoclonal antibodies raised against RNLS peptide RP220, ab31291: Abcam polyclonal antibody raised against a partial sequence of RP-220; n=6, * indicates p<0.005. […] FIG. 25D is a chart showing tumor volume increase after athymic nude mice received subcutaneous injection of Panc1 cells transduced with RNLS shRNA (sh-RNLS) or control (sh-Control); tumor volume measured every […] for up to 30 days, n=6 each; * indicates p<0.05. FIG. 25E is chart showing tumor volume increase after nude mice were xenografted with BxPC3; tumor volume measured prior to treatment every 3-4 days with 2 mg/kg of either rabbit IgG as a negative control or with m28-RNLS, n=10, * indicates p<0.05.

[3] = test system: melanoma cells; assay: Melanoma cell lines in culture, viability/growth; format: cell-based, human
Description: FIG. 19A through FIG. 19D are a series of images and charts showing that inhibition of RNLS signaling is cytotoxic to melanoma cells in vitro. […] FIG. 19B comprises two charts depicting relative cell viability: Left panel: Cells were treated with indicated antibodies for 72 hrs and cell viability was determined using WST-1; m28-RNLS (also known as 1D-28-4), m37-RNLS (also known as 1D-37-10): monoclonal antibodies raised against RNLS peptide RP220; Right panel: A375.S2 cells treated with increasing doses of m28-RNLS for 72 hrs and cell viability determined with a WST-1 assay; n=6, * indicates p<0.05 and ** indicates p<0.005. FIG. 19C comprises representative photos of A375.S2, SkMe128, and SkMe15 after 72 hrs incubation with either control rabbit IgG or m28-RNLS. FIG. 19D is a chart depicting relative cell viability, comprising amino acid (AA) sequence of RNLS peptide antagonist (RP220A).
For additional studies, cell viability was determined using WST-1 reagent (Roche Diagnostics, Indianapolis, Ind., USA) according to the manufacturers' instruction. Absorbances were read using a microplate reader (Power Waves XS, BioTek Instruments, Winooski, Vt., USA).

renalase isoform specificity [1]	Molecule	PDACC growth [2]	melanoma cell growth/viability in culture [3]	melanoma cell growth/viability in culture ([3]; listed as D-37-10)	melanoma cell growth/viability in culture ([3]; listed as m37-RNLS)
specific for renalase-2	3A-5-2: anti-renalase monoclonal specific for renalase-2 (antigen 3A); heavy chain SEQ ID NO:41, light chain SEQ ID NO:42 (antibody, oryctolagus cuniculus) heavy: METGLRWLLLVAVLKGVQCQSLEESGGRLVTPGTPLTLTCTVSGFSLNNYHIYWVRQAPGKGLEYIGIIFNGGTYYARWTKGRFTISKTSTTVDLKMTSLTTEDTATYFCARGDGIWGPGTLVTVSLGQPKAPSVFPLAPCCGDTPSSTVTLGCLVKGYLPEPVTVTWNSGTLTNGVRTFPSVRQSSGLYSLSSVVSVTSSSQPVTCNVAHPATNTKVDKTVAPSTCSKPTCPPPELLGGPSVFIFPPKPKDTLMISRTPEVTCVVVDVSQDDPEVQFTWYINNEQVRTARPPLREQQFNSTIRVVSTLPIAHQDWLRGKEFKCKVHNKALPAPIEKTISKARGQPLEPKVYTMGPPREELSSRSVSLTCMINGFYPSDISVEWEKNGKAEDNYKTTPAVLDSDGSYFLYSKLSVPTSEWQRGDVFTCSVMHEALHNHYTQKSISRSPGK light: MDTRAPTQLLGLLLLWLPGATFAQVLTQTPASVSAAVGGTVTINCQASQSVFNNNYLAWYQQKPGQPPKRLIYSASTLASGVSSRFKGSGSGTEFTLTMSGVECDDAATYYCAGSFDCNSGDCVAFGGGTEVVVKGDPVAPTVLIFPPAADQVATGTVTIVCVANKYFPDVTVTWEVDGTTQTTGIENSKTPQNSADCTYNLSSTLTLTSTQYNSHKEYTCKVTQGTTSVVQSFNRGDC				
specific for renalase-1	1F-26-1: anti-renalase monoclonal specific for renalase-1 (antigen 1F); heavy chain SEQ ID NO:25, light chain SEQ ID NO:26 (antibody, oryctolagus cuniculus) heavy: METGLRWLLLVAVLKGVQCQSVKESEGGLFKPTDTLTLTCTVSGFSLSSYGVTWVRQAPGNGLEWIGLIGDRGTTFYASWAKSRSTITRNTNLNTVTLKMTRLTAADTATYFCARGSGYGARIWGPGTLVTVSSWQPKAPSVFPLAPCCGDTPSSTVTLGCLVKGYLPEPVTVTWNSGTLTNGVRTFPSVRQSSGLYSLSSVVSVTSSSQPVTCNVAHPATNTKVDKTVAPSTCSKPTCPPPELLGGPSVFIFPPKPKDTLMISRTPEVTCVVVDVSQDDPEVQFTWYINNEQVRTARPPLREQQFNSTIRVVSTLPIAHQDWLRGKEFKCKVHNKALPAPIEKTISKARGQPLEPKVYTMGPPREELSSRSVSLTCMINGFYPSDISVEWEKNGKAEDNYKTTPAVLDSDGSYFLYSKLSVPTSEWQRGDVFTCSVMHEALHNHYTQKSISRSPGK light: MDTRAPTQLLGLLLLWLPGATFAQVLTQTPSPVSAAVGGTVTINCQSSQSVYKNNYLAWYQQKPGQPPKLLIYETSKLASGVPPRFSGSGSGTQFTLTISSVQCDDAATYYCQGGYSGVDFMAFGGGTEVVVKGDPVAPTVLIFPPSADLVATGTVTIVCVANKYFPDVTVTWEVDGTTQTTGIENSKTPQNSADCTYNLSSTLTLTSTQYNSHKEYTCKVTQGTTSVVQSFNRGDC				
specific for renalase-1	1F-42-7: anti-renalase monoclonal specific for renalase-1 (antigen 1F); heavy chain SEQ ID NO:33, light chain SEQ ID NO:34 (antibody, oryctolagus cuniculus) heavy: METGLRWLLLVAVLKGVQCQSVKESEGGLFKPTDTLTLTCTVSGFSLTTYGVTWVRQAPGNGLEWIGLIGDRGTTYYASWVNGRSTITRNTNLNTVTLKMTRLTAADTATYFCARGSGYGARIWGPGTLVTVASWQPKAPSVFPLAPCCGDTPSSTVTLGCLVKGYLPEPVTVTWNSGTLTNGVRTFPSVRQSSGLYSLSSVVSVTSSSQPVTCNVAHPATNTKVDKTVAPSTCSKPTCPPPELLGGPSVFIFPPKPKDTLMISRTPEVTCVVVDVSQDDPEVQFTWYINNEQVRTARPPLREQQFNSTIRVVSTLPIAHQDWLRGKEFKCKVHNKALPAPIEKTISKARGQPLEPKVYTMGPPREELSSRSVSLTCMINGFYPSDISVEWEKNGKAEDNYKTTPAVLDSDGSYFLYSKLSVPTSEWQRGDVFTCSVMHEALHNHYTQKSISRSPGK light: MDTRAPTQLLGLLLLWLPGATFAQVLTQTPSPMSAALGGTVTINCQSSQTVYNNNYLSWYQQKPGQPPKLLIYETSKLSSGVPPRFSGSGSGTQFTLTISSVQCDDAATYYCQGGYSGVDFMAFGGGTEVVVKGDPVAPTVLIFPPSADLVATGTVTIVCVANKYFPDVTVTWEVDGTTQTTGIENSKTPQNSADCTYNLSSTLTLTSTQYNSHKEYTCKVTQGTTSVVQSFNRGDC				
recognize renalase-1 and renalase-2	1D-37-10: rabbit anti-renalase monoclonal raised against peptide RP-220 (antigen 1D); heavy chain SEQ ID NO:17, light chain SEQ ID NO:18 (antibody, oryctolagus cuniculus) heavy: METGLRWLLLVAVLKGVQCQSVEESGGRLVTPGGSLTLTCTVSGFSLSDYAIIWVRQAPGKGLEYIAIIGSSGDTFYATWAKGRFTISKTSTTVDLKMTSLTAADTATYFCAPRYAGTTDYHDAFDPWGPGTLVTVSSGQPKAPSVFPLAPCCGDTPSSTVTLGCLVKGYLPEPVTVTWNSGTLTNGVRTFPSVRQSSGLYSLSSVVSVTSSSQPVTCNVAHPATNTKVDKTVAPSTCSKPTCPPPELLGGPSVFIFPPKPKDTLMISRTPEVTCVVVDVSQDDPEVQFTWYINNEQVRTARPPLREQQFNSTIRVVSTLPIAHQDWLRGKEFKCKVHNKALPAPIEKTISKARGQPLEPKVYTMGPPREELSSRSVSLTCMINGFYPSDISVEWEKNGKAEDNYKTTPAVLDSDGSYFLYSKLSVPTSEWQRGDVFTCSVMHEALHNHYTQKSISRSPGK light: MDTRAPTQLLGLLLLWLPGARCAEVVMTQTPASMEAPMGGTVTIKCQASQNIYNYLSWYQQKPGQPPKLLVYKASTLTSGVPSRFKGSGSGTQFTLTISDLECADAATYYCQINYSIYNHYNIIFGGGTEVVVKGDPVAPTVLIFPPSADLVATGTVTIVCVANKYFPDVTVTWEVDGTTQTTGIENSKTPQNSADCTYNLSSTLTLTSTQYNSHKEYTCKVTQGTTSVVQSFNRGDC	inhibitory effects	inhibit melanoma cells in culture	inhibit melanoma cell growth	decreased the viability of all (total of 5) melanoma cell lines tested
